Test results from publication PMC7797058, “Characterization of the first tetrameric transcription factor of the GntR superfamily with allosteric regulation from the bacterial pathogen Agrobacterium fabrum” (Nucleic Acids Research, 2020).

What was measured:
Atu1419 [1] = target: T1, Atu1419 (Agrobacterium fabrum, UniProt A9CJ36); assay: isothermal titration calorimetry; type: binding
T1 construct: theoretical monomer mass ~26542 Da; homotetramer; co-purified Zn2+
T1 sequence (A9CJ36 1-244): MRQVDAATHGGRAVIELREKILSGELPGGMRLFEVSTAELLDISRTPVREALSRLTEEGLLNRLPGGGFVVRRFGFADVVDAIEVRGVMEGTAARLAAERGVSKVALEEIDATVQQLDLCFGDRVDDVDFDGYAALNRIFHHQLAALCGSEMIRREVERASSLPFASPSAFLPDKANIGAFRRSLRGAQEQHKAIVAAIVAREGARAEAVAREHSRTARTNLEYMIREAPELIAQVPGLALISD

Atu1419 [2] = target: T1, Atu1419; assay: differential scanning calorimetry; type: binding; details: 10 µM protein, 100 µM MEF, 1 K/min; absolute Tm with ligand, apo reference Tm 52.6 °C
[3] = target: T2, Atu1419 (Agrobacterium fabrum C58) (UniProt A9CJ36); assay: EMSA; details: EMSA: 50 mM Tris-HCl pH 8, 150 mM NaCl, 30 nM DNA, 30 min at room temperature; gel 6% or 12% PAGE in TBE at 4 C
T2 sequence: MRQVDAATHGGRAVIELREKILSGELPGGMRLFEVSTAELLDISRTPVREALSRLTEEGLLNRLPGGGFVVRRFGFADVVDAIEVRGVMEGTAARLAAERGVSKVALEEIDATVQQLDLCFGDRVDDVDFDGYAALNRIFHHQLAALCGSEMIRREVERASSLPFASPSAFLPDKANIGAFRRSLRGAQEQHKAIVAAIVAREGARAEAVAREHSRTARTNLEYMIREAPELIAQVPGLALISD

[4] = target: the molecule itself; assay: SEC + SEC-MALS; apo Atu1419 at 25 uM; Superdex 200 10/300 GL; 50 mM Tris pH 8, 150 mM NaCl
[5] = target: the molecule itself; assay: not stated; oligomeric state of purified Atu1419-H3A; method not given
Atu1419 [6] = target: T3, Atu1419 (Agrobacterium fabrum C58, UniProt A9CJ36 1-244); assay: X-ray crystallography; Zn2+, citrate (orientation B); EMSA: 50 mM Tris-HCl pH 8, 150 mM NaCl, 30 nM DNA, 30 min at room temperature; gel 6% or 12% PAGE in TBE at 4 C; details: protein: recombinant; tags: C-terminal 6xHis; chain copies: 4; blunt; self-complementary, 2 strand copies
T3 sequence: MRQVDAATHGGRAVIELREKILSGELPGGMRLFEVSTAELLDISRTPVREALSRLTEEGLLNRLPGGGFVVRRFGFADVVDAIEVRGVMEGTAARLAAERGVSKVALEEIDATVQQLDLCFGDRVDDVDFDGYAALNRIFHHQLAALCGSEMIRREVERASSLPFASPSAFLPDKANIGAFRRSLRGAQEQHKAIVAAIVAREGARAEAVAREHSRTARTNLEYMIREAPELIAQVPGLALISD

Nc1nc2c(c(=O)[nH]1)N1CN(c3ccc(C(=O)N[C@@H](CCC(=O)O)C(=O)O)cc3)C[C@H]1CN2 [MEF, N5,N10-methylenetetrahydrofolate]
Kd (Atu1419 [1]): ~20 µM | Tm (Atu1419 [2]): 63.5 °C

AAGCGCCTGAACTGATTGCGCAGGTTCCGGGTCTCGCACTCATCAGCGACTAAGCGGCGGAAATCGCTGCAAATCCAGGGGTGGCGCCTTTTGGCGCCGCCTTTATTTTTGTCGACACCCTCCCTGACGCGGTAATTTTGCGCTTGCAATTTATCAAAGCACAGCGTTTCATGTATACATAGATGCGATTGCCAGGGAGGAGATGACAATGGCAAATTCCAGTCTGACCGAGGTTTTGAAGCAATATCCGAACCCCGTTGAAATGCTC (double strand) [Patu1420]
binding [3]: binds

GGTGGGACTGGTCAAACAACACGGCACCCTCGCGCCATGCGGCCTGCTCGGAACGCCAGTTGCTGAACTCACCGGCGACAACCGGGTATACATACATTCCGATTTTTGAGTTGCGGAGCATTTCAACGGGGTTCGGATATTGCTTCAAAACCTCGGTCAGACTGGAATTTGCCATTGTCATCTCCTCCCT (double strand) [P2-atu1420]
binding [3]: binds

B1: Atu1419 transcriptional regulator (GntR superfamily, VanR group) of Agrobacterium fabrum (natural protein, UniProt A9CJ36 1-244, looked up)
chain: MRQVDAATHGGRAVIELREKILSGELPGGMRLFEVSTAELLDISRTPVREALSRLTEEGLLNRLPGGGFVVRRFGFADVVDAIEVRGVMEGTAARLAAERGVSKVALEEIDATVQQLDLCFGDRVDDVDFDGYAALNRIFHHQLAALCGSEMIRREVERASSLPFASPSAFLPDKANIGAFRRSLRGAQEQHKAIVAAIVAREGARAEAVAREHSRTARTNLEYMIREAPELIAQVPGLALISD
notes: Atu1419, GntR-type transcriptional repressor of the SpG8-1b region, Agrobacterium fabrum C58; theoretical molecular weight about 26 542 Da for a monomer; Co-purifies with one Zn2+ ion per subunit; also called apo Atu1419; wild-type Atu1419; source: E. coli BL21, pET-20b, purified (His-Trap HP, Superdex 200 gel filtration)
stoichiometry N [4]: 4

B2: Atu1419-H3A mutant (H192A, H141A and H214A) (natural protein)
chain: MRQVDAATHGGRAVIELREKILSGELPGGMRLFEVSTAELLDISRTPVREALSRLTEEGLLNRLPGGGFVVRRFGFADVVDAIEVRGVMEGTAARLAAERGVSKVALEEIDATVQQLDLCFGDRVDDVDFDGYAALNRIFAHQLAALCGSEMIRREVERASSLPFASPSAFLPDKANIGAFRRSLRGAQEQAKAIVAAIVAREGARAEAVAREASRTARTNLEYMIREAPELIAQVPGLALISD
notes: The PDB entries are of the wild-type parent; the mutant could not be crystallised; also called triple point mutant; source: E. coli BL21, synthetic gene (Genscript) in pET-20b, expressed and purified as the wild-type protein
stoichiometry N [5]: 4

B3: 10-mer palindrome (dsDNA)
DNA 1: ATGTATACAT
DNA 2: ATGTATACAT
binding result (Atu1419 [6]): binds
